Each block holds one binder with its values, some of them ahead of it.
What was measured:
Pdr5-F[3] = Pdr5-F[3] (S. cerevisiae, UniProt P33302 1-1511; P00375 107-187); assay: cell-based or functional assay
Fpr1-F[3] = molecular target: T1, Fpr1-F[3] (S. cerevisiae, UniProt P20081 2-114; P00375 107-187); assay: cell-based or functional assay
T1 sequence (looked up): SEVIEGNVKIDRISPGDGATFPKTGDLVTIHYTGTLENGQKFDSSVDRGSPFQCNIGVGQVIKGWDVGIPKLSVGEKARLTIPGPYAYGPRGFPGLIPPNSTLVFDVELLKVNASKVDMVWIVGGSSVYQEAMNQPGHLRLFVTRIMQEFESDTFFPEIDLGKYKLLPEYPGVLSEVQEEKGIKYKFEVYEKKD

[1] = molecular target: T2, Pdr5 split Renilla luciferase (Rluc) PCA fusion (S. cerevisiae, UniProt P33302 1-1511); assay: split Renilla luciferase PCA, luminescence of yeast cells, 200 µM copper sulfate
T2 construct: whole, on cells; DHFR fragment of the Pdr5-F[3] strain replaced by an Rluc PCA fragment by homologous recombination; also called Pdr5 (Rluc PCA strain); not shown: linker of the pAG25/pAG32-linker-Rluc cassettes; Renilla luciferase PCA fragment; DHFR F[3] strains are said to receive Rluc F[1], but the next sentences call preys Rluc
Method: Triplicate fresh colonies of each diploid Rluc PCA strain were grown in 5 ml synthetic dextrose media supplemented with standard concentrations of histidine, leucine, and uracil at 30° C. for 24 h, then diluted 1:32 into 5 ml of the same media supplemented DMSO (0.5%), FK506 (50 μM), hydrogen peroxide (0.001%), sodium chloride (175 mM), or copper sulfate (200 μM). Cells were grown for 24 h at 30° C., diluted 1:32 again into fresh media containing the same supplement, and grown for another 6 h. Cells were counted, and 1-2×10⁷ cells were pelleted, and resuspended in 180 ul phosphate-buffered saline (PBS), pH 7.2 containing 1 mM EDTA. Cells were transferred to white 96-well flat bottom plates (Greiner bio-one #655075). The luciferase substrate, benzyl coelenterazine (Nanolight #301), was diluted 1:10 from the stock (2 mM in absolute ethanol) using 1×PBS, and 20 ul of diluted substrate was added to each sample (to a final concentration of […]). A Centro LB 960 microplate luminometer (Berthold Technologies) was used to measure the Rluc PCA signal, which was integrated for 10 seconds. Changes in luminescence in response to a specific condition were calculated by the following equation: luminescencecondition/luminescenceDMSO.

Snq2-F[3] = Snq2-F[3] (S. cerevisiae, UniProt P32568 2-1501; P00375 107-187); assay: cell-based or functional assay
Hxt1-F[3] = molecular target: T3, Hxt1-F[3] (S. cerevisiae, UniProt P32465 1-570; P00375 107-187); assay: cell-based or functional assay
T3 sequence (looked up): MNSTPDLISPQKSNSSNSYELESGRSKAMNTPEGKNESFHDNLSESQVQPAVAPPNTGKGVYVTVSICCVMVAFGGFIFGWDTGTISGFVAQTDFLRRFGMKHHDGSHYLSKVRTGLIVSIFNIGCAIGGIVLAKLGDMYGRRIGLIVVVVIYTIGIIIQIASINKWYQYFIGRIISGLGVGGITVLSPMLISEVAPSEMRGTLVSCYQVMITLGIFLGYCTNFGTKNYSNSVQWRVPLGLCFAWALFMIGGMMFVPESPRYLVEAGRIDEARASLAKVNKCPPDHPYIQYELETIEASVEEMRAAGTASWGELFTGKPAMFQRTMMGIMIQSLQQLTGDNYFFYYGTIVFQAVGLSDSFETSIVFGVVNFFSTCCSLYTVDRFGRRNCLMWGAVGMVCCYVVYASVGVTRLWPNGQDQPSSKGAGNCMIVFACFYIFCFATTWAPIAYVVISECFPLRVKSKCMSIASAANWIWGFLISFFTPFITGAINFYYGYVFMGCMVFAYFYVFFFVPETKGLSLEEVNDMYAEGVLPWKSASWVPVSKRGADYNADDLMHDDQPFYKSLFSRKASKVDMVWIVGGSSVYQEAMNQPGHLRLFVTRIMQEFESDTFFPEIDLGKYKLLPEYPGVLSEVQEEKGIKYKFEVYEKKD

T2 sequence (P33302 whole entry, the tested form may be a part): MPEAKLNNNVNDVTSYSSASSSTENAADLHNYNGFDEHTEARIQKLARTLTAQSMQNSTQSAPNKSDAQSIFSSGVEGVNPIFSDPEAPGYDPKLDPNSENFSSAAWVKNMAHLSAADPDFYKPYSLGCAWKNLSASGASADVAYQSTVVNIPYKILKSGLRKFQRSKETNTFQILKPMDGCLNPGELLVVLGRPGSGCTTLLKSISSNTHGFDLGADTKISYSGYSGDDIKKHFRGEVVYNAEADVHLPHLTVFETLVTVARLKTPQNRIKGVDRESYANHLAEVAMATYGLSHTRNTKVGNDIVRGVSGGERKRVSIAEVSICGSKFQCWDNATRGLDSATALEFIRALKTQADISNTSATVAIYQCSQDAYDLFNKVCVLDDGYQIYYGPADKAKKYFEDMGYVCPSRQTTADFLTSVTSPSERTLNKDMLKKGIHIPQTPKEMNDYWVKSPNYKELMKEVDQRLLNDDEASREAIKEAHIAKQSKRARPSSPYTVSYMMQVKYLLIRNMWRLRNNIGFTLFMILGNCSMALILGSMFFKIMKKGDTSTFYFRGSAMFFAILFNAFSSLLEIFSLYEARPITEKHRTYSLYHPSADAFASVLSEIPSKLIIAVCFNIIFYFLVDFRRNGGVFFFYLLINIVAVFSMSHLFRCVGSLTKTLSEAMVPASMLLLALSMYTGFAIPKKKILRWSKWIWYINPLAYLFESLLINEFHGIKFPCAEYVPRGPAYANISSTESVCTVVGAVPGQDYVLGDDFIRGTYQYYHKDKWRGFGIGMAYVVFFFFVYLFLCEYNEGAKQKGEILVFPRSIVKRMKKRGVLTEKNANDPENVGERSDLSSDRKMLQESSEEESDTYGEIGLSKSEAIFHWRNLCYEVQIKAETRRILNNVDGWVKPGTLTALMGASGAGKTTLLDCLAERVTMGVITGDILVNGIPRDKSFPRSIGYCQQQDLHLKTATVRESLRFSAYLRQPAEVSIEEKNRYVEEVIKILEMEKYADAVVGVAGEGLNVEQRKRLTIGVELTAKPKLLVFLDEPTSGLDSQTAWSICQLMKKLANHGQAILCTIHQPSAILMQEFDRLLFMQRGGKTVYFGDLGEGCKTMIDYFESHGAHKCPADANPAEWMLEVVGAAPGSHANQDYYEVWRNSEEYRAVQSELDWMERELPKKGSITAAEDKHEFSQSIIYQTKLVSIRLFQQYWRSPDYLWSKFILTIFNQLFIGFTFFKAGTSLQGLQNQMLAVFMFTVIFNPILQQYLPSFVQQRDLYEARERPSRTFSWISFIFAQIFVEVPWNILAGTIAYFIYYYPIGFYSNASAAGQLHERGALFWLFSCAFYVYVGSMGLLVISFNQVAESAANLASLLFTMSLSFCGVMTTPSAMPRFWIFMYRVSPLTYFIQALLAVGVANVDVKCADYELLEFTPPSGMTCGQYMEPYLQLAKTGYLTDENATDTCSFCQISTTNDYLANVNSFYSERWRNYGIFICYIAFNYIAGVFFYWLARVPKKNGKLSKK

B1: Ftr1-F[1,2] (other, UniProt P40088 1-404, looked up, not shown: small tags and cut ends)
chain: MPNKVFNVAVFFVVFRECLEAVIVISVLLSFLKQAIGEHDRALYRKLRIQVWVGVLLGFIICLAIGAGFIGAYYSLQKDIFGSAEDLWEGIFCMIATIMISMMGIPMLRMNKMQSKWRVKIARSLVEIPHRKRDYFKIGFLSRRYAMFLLPFITVLREGLEAVVFVAGAGITTQGSHASAYPLPVVVGLICGGLVGYLLYYGASKSSLQIFLILSTSILYLISAGLFSRGAWYFENYRFNLASGGDASEGGDGNGSYNIRKAVYHVNCCNPELDNGWDIFNALLGWQNTGYLSSMLCYNIYWLVLIIVLSLMIFEERRGHLPFTKNLQLKHLNPGYWIKNKKKQELTEEQKRQLFAKMENINFNEDGEINVQENYELPEQTTSHSSSQNVATDKEVLHVKADSLVRPLNCIVAVSQNMGIGKNGDLPWPPLRNEFKYFQRMTTTSSVEGKQNLVIMGRKTWFSIPEKNRPLKDRINIVLSRELKEPPRGAHFLAKSLDDALRLIEQPEL
fitness (PPiSeq, MTX(+), benign environment, relative to control strain lacking mDHFR fragments) (Pdr5-F[3]): 0.1

B2: Fmp45-F[1,2] (other, UniProt Q07651 1-309, looked up, not shown: small tags and cut ends)
chain: MIFKRFVNLLVFLFLLGAGLLTFFLILSGGRESGTLKNFYWLQADTNGFNSAPSTTRWYNYNWCGYEDGQLANCSSRAPAKPFSPRDNFGNSVNLPSSFRNNRDTYYYLSRVGWAMLLISLFFIVLALVPGFLATFLPFKAVPVLYCVLSWLAFFFIILAACLYTGCYVKARKTFRNSGRSARLGPKNFAFIWTSVFLMLVNAIWSTIFSATHKAHSTYSDHDMYAQYESPSVDTGAQMEKSTYNSGATDGAGPITAAPVVGQPQPTTTTTPAGNGKFFQKLKTRKQVPSAELEPAGDGGLAGPVTVRDVRPLNCIVAVSQNMGIGKNGDLPWPPLRNEFKYFQRMTTTSSVEGKQNLVIMGRKTWFSIPEKNRPLKDRINIVLSRELKEPPRGAHFLAKSLDDALRLIEQPEL
fitness (PPiSeq, MTX(+), benign environment) (Pdr5-F[3]): 0.06

B3: Hom3-F[1,2] (other, UniProt P10869 1-527, looked up, not shown: small tags and cut ends)
chain: MPMDFQPTSSHSNWVVQKFGGTSVGKFPVQIVDDIVKHYSKPDGPNNNVAVVCSARSSYTKAEGTTSRLLKCCDLASQESEFQDIIEVIRQDHIDNADRFILNPALQAKLVDDTNKELELVKKYLNASKVLGEVSSRTVDLVMSCGEKLSCLFMTALCNDRGCKAKYVDLSHIVPSDFSASALDNSFYTFLVQALKEKLAPFVSAKERIVPVFTGFFGLVPTGLLNGVGRGYTDLCAALIAVAVNADELQVWKEVDGIFTADPRKVPEARLLDSVTPEEASELTYYGSEVIHPFTMEQVIRAKIPIRIKNVQNPLGNGTIIYPDNVAKKGESTPPHPPENLSSSFYEKRKRGATAITTKNDIFVINIHSNKKTLSHGFLAQIFTILDKYKLVVDLISTSEVHVSMALPIPDADSLKSLRQAEEKLRILGSVDITKKLSIVSLVGKHMKQYIGIAGTMFTTLAEEGINIEMISQGANEINISCVINESDSIKALQCIHAKLLSERTNTSNQFEHAIDERLEQLKRLGIVRPLNCIVAVSQNMGIGKNGDLPWPPLRNEFKYFQRMTTTSSVEGKQNLVIMGRKTWFSIPEKNRPLKDRINIVLSRELKEPPRGAHFLAKSLDDALRLIEQPEL
fitness in 50 µM FK506 against the benign environment (PPiSeq, MTX(+)) (Fpr1-F[3]): ~10 fold

B5: Tpo1-F[1,2] (other, UniProt Q07824 1-586, looked up, not shown: small tags and cut ends)
chain: MSDHSPISNKENHLLPSDSSRSSSSDMHSTGTTGTTGVEPVDFTGEGAKYTTATEGNGGADLAIQRTTTMNSAAESEVNITRRLTKILTGSVNEPDRVEVDYTNCAPMGGDRPYPPSLPSRDLYEVTFDGPNDPLHPFNWPMKKKVLLCLVLCLDSIAIAMCSSIFASAVPQICEIYHVIEVVAILGITLFVLGFAASPVIYAPLSELYGRKGVLVLSAFGFALFQFAVATAENLQTIFICRFFGGFIGAAPMAVVPAAFADMFDTNVRGKAIALFSLGVFVGPILSPVMGSYIAQRTTWRWLEYVVGCFASAVFVAIVLFFEETHHPTILVNKAKQMRKQSNNWGIHAAHEDVELSIKDIVQKTVTRPIIMLFVEPLLLFVTIYNSFVYGILYLLLEAYPLVFVEGYGFTENGELPYIALIIGMMVCAAFIWYMDNDYLKRCRAKGKLVPEARLYAMVIAGTVFPIGILWFCWTGYYPHKIHWMVPTVGGAFIGFGLMGIFLPCLNYIIESYLLLAASAVAANTFMRSAFGACFPLFAGYMFRGMGIGWAGLLLGLFAAAMIPVPLLFLKYGESIRKKSKYAYAAVRPLNCIVAVSQNMGIGKNGDLPWPPLRNEFKYFQRMTTTSSVEGKQNLVIMGRKTWFSIPEKNRPLKDRINIVLSRELKEPPRGAHFLAKSLDDALRLIEQPEL
fitness (PPiSeq, MTX(+), benign environment) (Snq2-F[3]): 0.08

The remaining lines, values ahead:

binding result [1]: binds
B4: Ftr1 split Renilla luciferase (Rluc) PCA fusion (other, S. cerevisiae, UniProt P40088 1-404, looked up)
chain: MPNKVFNVAVFFVVFRECLEAVIVISVLLSFLKQAIGEHDRALYRKLRIQVWVGVLLGFIICLAIGAGFIGAYYSLQKDIFGSAEDLWEGIFCMIATIMISMMGIPMLRMNKMQSKWRVKIARSLVEIPHRKRDYFKIGFLSRRYAMFLLPFITVLREGLEAVVFVAGAGITTQGSHASAYPLPVVVGLICGGLVGYLLYYGASKSSLQIFLILSTSILYLISAGLFSRGAWYFENYRFNLASGGDASEGGDGNGSYNIRKAVYHVNCCNPELDNGWDIFNALLGWQNTGYLSSMLCYNIYWLVLIIVLSLMIFEERRGHLPFTKNLQLKHLNPGYWIKNKKKQELTEEQKRQLFAKMENINFNEDGEINVQENYELPEQTTSHSSSQNVATDKEVLHVKADSL
notes: whole, on cells; DHFR fragment of the Ftr1-F[1,2] strain replaced by an Rluc PCA fragment by homologous recombination; also called Ftr1 (Rluc PCA strain); not shown: linker of the pAG25/pAG32-linker-Rluc cassettes; Renilla luciferase PCA fragment; DHFR F[1,2] strains are said to receive Rluc F[2], but the next sentences call baits Rl

fitness (PPiSeq, MTX(+), benign environment) (Hxt1-F[3]): 0.1
B6: Shr3-F[1,2] (other, UniProt Q02774 1-210, looked up, not shown: small tags and cut ends)
chain: MFSYSDFCSIGTAMILSATTFLMGVFFSNMPYDYHLLFNPNSTQEHFDLALRHYQILHETPLPVIVTLCVVAGIGLVGGTIKVFKPNPELQMFEYCSLGLYVLAICVFLTNVKTGIDCSVSHNWGEVTENQGLAVIASSNIILLVMFAGVIILQIGLWYSNWDLQKRLKEFYAQEEREAANAGKKTEKVDNAKKNDNKSKGAQKRKNAKKVRPLNCIVAVSQNMGIGKNGDLPWPPLRNEFKYFQRMTTTSSVEGKQNLVIMGRKTWFSIPEKNRPLKDRINIVLSRELKEPPRGAHFLAKSLDDALRLIEQPEL

From patent publication US20180298377A1 (RESEARCH FOUNDATION FOR THE STATE UNIVERSITY OF NEW YORK, published 2018)
